# Experimental data taken from article PMC2199964.
# Biological target: Suc1 protein coupled to CNBr-Sepharose beads (UniProt P08463)
# Assay: pull-down
# Sequence of Suc1 protein coupled to CNBr-Sepharose beads (P08463 whole entry): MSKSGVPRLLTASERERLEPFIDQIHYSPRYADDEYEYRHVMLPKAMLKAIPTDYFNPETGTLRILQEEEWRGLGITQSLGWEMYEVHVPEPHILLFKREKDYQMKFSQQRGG
substance,measurement,value
"Xenopus cyclin E, endogenous in interphase egg extract (natural protein)",percent of the protein removed from the extract by Suc1 beads,> 90%
